Values of other authors in patent US10857230B2, “Co-therapy comprising a small molecule CSF-1R inhibitor and an agonistic antibody that specifically binds CD40 for the treatment of cancer” (Janssen Biotech, Inc., priority 2017, dated 2020).

What was measured:
[1] = patient clinical trials; day of antibody intravenous infusion; cited from earlier work
[2] = tested on: B cells and dendritic cells; conditions: cited from earlier work

For “CP-870,893: cross-linking independent agonistic CD40 antibody; VH and VL of SEQ ID NOs: 44 and 45, may be IgG2”, which “most common side effects” value [1] is on record?
The value was “moderate CRS”.

And the “potency in activating B cells relative to dendritic cells” value [2]?
The value was “about 20 fold”.
